In the supplement of paper PMC10126150:
± gives the standard deviation of the averaged measurements.

System: ATP
Experiment: switch fluorescence ratio, 500 uM ATP over buffer (Cy3 cluster intensity, sum of 5 cycles each) (fold (ratio)); higher = stronger signal-on switching upon ATP binding; sequences stand for … in TCGTCGGCAGCGTCAGATGTGTATAAGAGACAGTTTTTTTTTTTTTTTTTTTTTTTTT…TC
Conditions: aptamer strand: ATP DNA aptamer (quencher-CACCTGGGGGAGTATTGCGGAGGAAGG + anchor), 100 nM annealed; ATP concentration: 500 uM
Outline: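 Values give the fluorescence ratio for each switch-domain sequence, averaged from per-cluster ratios of summed target-cycle to summed buffer-cycle Cy3 intensity. The Cy3-labelled switching-strand clusters sat on a modified Illumina MiSeq flow-cell, were annealed to 100 nM quencher-labelled ATP aptamer, and were imaged in selection buffer, then after 15 min with 500 uM ATP at 22 °C. Five cycles ran with NaOH stripping and re-annealing between them, and clusters outside 100-1000 RFU were excluded.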
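Also: ATP exposure 15 min at 22 °C before imaging.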

Sequence	switch fluorescence ratio
AAGTTTAAGT	0.989 ± 0.013
GGTTTCGAAT	0.98 ± 0.049
CAAAATTGCC	0.954 ± 0.11
CCATGTTTGT	1.01 ± 0.028
GTGGATATTT	0.986 ± 0.015
ATTAGCACGG	0.997 ± 0.013
GATTGAGCCC	0.971 ± 0.037
AATTTACGAA	1.01 ± 0.019
CTGAATACGG	1.115 ± 0.01
ATGGGTTGGT	0.981 ± 0.016
CTGTCAGATG	1 ± 0.025
CAGTGCGCCT	0.996 ± 0.036
GGGTTTTGGC	1 ± 0.066
TCAATGATAT	1.02 ± 0.019
CTGCATGACG	1.01 ± 0.047
TGCTGGTCGG	0.985 ± 0.035
CGGTTGGCGA	1.02 ± 0.011
AATGGGGGTT	1.02 ± 0.037
ATGATCTCCG	1.32 ± 0.017
ATGATTGCAC	1.01 ± 0.057
AGAGGTGCAT	1.02 ± 0.017
TTCCGGCTAT	1.15 ± 0.064
ACTTCGGGTA	1.003 ± 0.0017
TGGGTGTATC	1.004 ± 0.0022
TTTGGTCCCT	0.993 ± 0.016

Sequence	switch fluorescence ratio
AAATAAAACT	1.1 ± 0.19
TGACTCGAGT	1.01 ± 0.012
ACCAGGTGAT	4.78 ± 0.26
GCTTTTGGCA	1.019 ± 0.0057
TTTTTGTGCA	1.01 ± 0.011
CGCATCAACG	1.18 ± 0.087
CGGCGCGCTG	0.997 ± 0.034
TTATATACCA	1.03 ± 0.079
GCAACTTCGG	0.992 ± 0.016
GTTGGACTGG	1.01 ± 0.037
TGGGGGAAGG	1.03 ± 0.061
CAGGGAAAAC	1.03 ± 0.034
ATTGGGCATT	1.018 ± 0.006
GGTTCCATGC	1.1 ± 0.014
GGGGGACGAC	0.969 ± 0.035
ATAATCCTGG	0.987 ± 0.011
TGGGATGTTT	0.982 ± 0.026
TAGAAATCGG	1.02 ± 0.015
AGTCGGGCGG	1 ± 0.026
GATAGGCAAA	1.017 ± 0.0051
TTTCCAAATG	0.9847 ± 0.0059
TCTAAGTTTT	0.97 ± 0.01
ATTTATCCTC	1.05 ± 0.029
TGGGCTCTTT	1 ± 0.019
AAACCCTGGG	1.04 ± 0.029

Sequence	switch fluorescence ratio
CTCAGTCGGG	0.991 ± 0.01
GGGGTTTAAG	0.969 ± 0.025
TTTATGGGAC	0.999 ± 0.052
ACGGGGGGTA	1.02 ± 0.035
CCGTTTATGA	1.1 ± 0.047
CACGTCGGTA	1.01 ± 0.015
CACTGGGATT	1.01 ± 0.018
GCCAAGGGAT	0.9721 ± 0.0082
TTGAGTGTCA	0.9852 ± 0.007
AGTACTCTGT	1.01 ± 0.039
TTGCGGCGTG	0.956 ± 0.024
TTAGGGGGAG	1.03 ± 0.065
GTCGGGGGGC	0.985 ± 0.021
CGGGACTGTT	1.02 ± 0.059
TAATAAAGAT	0.969 ± 0.054
ACATCGTCGG	1.014 ± 0.0091
AGATGCCTTC	1.01 ± 0.029
ACTGCTAGGG	1.02 ± 0.013
AGGTTTATGT	1.0099 ± 0.00068
GGAATAGTGC	1.01 ± 0.052
ACAGCTCGAG	1 ± 0.02
GGGGGGCCGG	0.996 ± 0.033
TTGGTTCCAT	1.02 ± 0.017
CAGTGTATTT	1.01 ± 0.038
AAATCATTGT	1 ± 0.014

Sequence	switch fluorescence ratio
CTAATACTAG	0.982 ± 0.047
TGTGCCTGCT	1 ± 0.043
ATGTCGATGG	0.9908 ± 0.0065
GTCTTGGTTC	0.9721 ± 0.0084
GGGAAATAGA	1.004 ± 0.0088
GGTTTTGCTG	1.05 ± 0.053
GAGTTAGTGC	0.982 ± 0.039
ATCGGTACTG	0.965 ± 0.027
ATAGGTCTTC	0.983 ± 0.059
ATTCACTCGT	1.11 ± 0.13
TTCGCGAAAT	1.027 ± 0.01
GTGGTTCTGA	1.03 ± 0.024
TTGAGTTTAC	1.058 ± 0.0028
GCATTTTCAT	0.9766 ± 0.0094
AACTACTGTG	1.03 ± 0.056
GTTTATGCAG	0.968 ± 0.017
AGAGGGGCAG	0.961 ± 0.016
TTATGGGTCG	0.99 ± 0.034
AAAGGAAGG	0.995 ± 0.013
GAGGAGGATA	0.953 ± 0.024
TGAAAAACGT	0.991 ± 0.013
GGTAGGGAAT	0.974 ± 0.029
GCGTTTTCGA	1 ± 0.021
TCCGCGGCTT	2.12 ± 1.5
GGGAATTAGG	1 ± 0.021
